This is an account of results in US10006011.

In data set [1] the test system is TALEN left L20 of FIG. 4B (Comparative Example 1) (synthetic construct). Kind of data set: cell_activity. The conditions noted are these: SSA assay HEK293T, reference pair with R17.
The subject of data set [2] is TALEN right R17 of FIG. 4B (Comparative Example 1) (synthetic construct). Kind of data set: cell_activity. The conditions noted are these: SSA assay HEK293T, reference pair with L20.

“TCCATTCCTATGACTGTAGATTTTTATCAGACTGAAGAGCTATTGTGTGAGTATA (double strand) [FIG. 4B TALEN target]”: the activity in data set [1] and in data set [2] was 1 relative each time.
